From patent publication US20260091122A1

Experiments:
[1] = target: membrane of human CD14+ monocytes isolated from the peripheral blood of a healthy subject; experiment: flow cytometry on human monocytes, AF647 label, 37 C
[2] = target: membrane of human macrophages differentiated in vitro in the presence of M-CSF from CD14+ monocytes; experiment: flow cytometry on human macrophages, AF647 label, 37 C

Substance: non-specific antibody corresponding to an isotype control coupled to the Alexa Fluor (AF) 647 fluorochrome
- MFI [1]: 265 MFI
- Ratio (MFI against that of the isotype control) [1]: 1
- MFI [2]: 1640 MFI
- Ratio (MFI against that of the isotype control) [2]: 1
